In the RNAGym collection of RNA variant scans (doi:10.7554/elife.90254) one finds self-cleavage data, which are given here for 41 variants.

B1: OR4K15 (parent)
chain: GUUAACGGUCAUAGGCCAUGGAAACUAGGAGCACCAUUUCGCUGCCAGUGAAGAAAUGAACAAAGAAAAUCUGGGCCAGGCAGGCAUCAAAAGAAAUAGUCUUGCGCUCAACCAGAAAGUCUGUAAUCAUUUUAAGGGUA

The variants in this data set derive from B1. Description: self-cleavage, relative activity (ratio to wild type); higher = more cleavage; in vitro, sequencing; the parent is a self-cleaving ribozyme.
With GUUAACGGUCAUAGGCCAUGGAAACUAGGAGCACCAUCUCGCUGCCAGUGAAGAAAUGAACAAAGAAAAUCUGGGCCUGGCAGGCAUCAAAAGAAAUAGUCUUGCGCUCAACCAGAAAGUCUGUAAUCAUUUUAAGGGUA [U38C A78U], the self-cleavage was found to be 0.35.

For GUUAACGGUCAUAGGCCAUGGAAACUAGGAGCACCAUCUCGCUGCCAGUGAAGAAAUGAACAAAGAAAAUCUGGGCCCGGCAGGCAUCAAAAGAAAUAGUCUUGCGCUCAACCAGAAAGUCUGUAAUCAUUUUAAGGGUA [U38C A78C], the self-cleavage was 0.46. On to GUUAACGGUCAUAGGCCAUGGAAACUAGGAGCACCAUCUCGCUGCCAGUGAAGAAAUGAACAAAGAAAAUCUGGGCCGGGCAGGCAUCAAAAGAAAUAGUCUUGCGCUCAACCAGAAAGUCUGUAAUCAUUUUAAGGGUA [U38C A78G], for which the self-cleavage came to 0.2. Consider GUUAACGGUCAUAGGCCAUGGAAACUAGGAGCACCAUCUCGCUGCCAGUGAAGAAAUGAACAAAGAAGAUCUGGGCCAGGCAGGCAUCAAAAGAAAUAGUCUUGCGCUCAACCAGAAAGUCUGUAAUCAUUUUAAGGGUA [U38C A68G], for which the self-cleavage is 0.84.

Take GUUAACGGUCAUAGGCCAUGGAAACUAGGAGCACCAUCUCGCUGCCAGUGAAGAAAUGAACGAAGAAAAUCUGGGCCAGGCAGGCAUCAAAAGAAAUAGUCUUGCGCUCAACCAGAAAGUCUGUAAUCAUUUUAAGGGUA [U38C A62G]: the self-cleavage was 1.37. As for GUUAACGGUCAUAGGCCAUGGAAACUAGGAGCACCAUAUCGCUGCCAGUGAAGAAAUGAACAAAGAAAAUCUGGGCCAGGCAGGCAUCAAAAGAAAUAGUCCUGCGCUCAACCAGAAAGUCUGUAAUCAUUUUAAGGGUA [U38A U102C], the self-cleavage stood at 1.99. For the variant GUUAACGGUCAUAGGCCAUGGAAACUAGGAGCACCAUAUCGCUGCCAGUGAAGAAAUGAACAAAGAAAAUCUGGGCCAGGCAGGCAUCAAAAGAAACAGUCUUGCGCUCAACCAGAAAGUCUGUAAUCAUUUUAAGGGUA [U38A U97C], the self-cleavage was determined as 1.67. In the case of GUUAACGGUCAUAGGCCAUGGAAACUAGGAGCACCAUCUCGCUGCCAGUGAAGAAAUGAACAAAGAAAUUCUGGGCCAGGCAGGCAUCAAAAGAAAUAGUCUUGCGCUCAACCAGAAAGUCUGUAAUCAUUUUAAGGGUA [U38C A69U] it was 0.9; in that of GUUAACGGUCAUAGGCCAUGGAAACUAGGAGCACCAUAUCGCUGCCAGUGAAGAAAUGAACAAAGAAAAUCUGGGCCAGGCAGGCAUCAAAAGAAAUAGUCUUGCGCUCAACCAGAAAGUCUGUAAUCAUCUUAAGGGUA [U38A U131C], 1.16. Then GUUAACGGUCAUAGGCCAUGGAAACUAGGAGCACCAUCUCGCUGCCCGUGAAGAAAUGAACAAAGAAAAUCUGGGCCAGGCAGGCAUCAAAAGAAAUAGUCUUGCGCUCAACCAGAAAGUCUGUAAUCAUUUUAAGGGUA [U38C A47C], with 1.99; and GUUAACGGUCAUAGGCCAUGGAAACUAGGAGCACCAUCUCGCUGCCGGUGAAGAAAUGAACAAAGAAAAUCUGGGCCAGGCAGGCAUCAAAAGAAAUAGUCUUGCGCUCAACCAGAAAGUCUGUAAUCAUUUUAAGGGUA [U38C A47G], with 0.74; and GUUAACGGUCAUAGGCCAUGGAAACUAGGAGCACCAUCUCGCUGCCUGUGAAGAAAUGAACAAAGAAAAUCUGGGCCAGGCAGGCAUCAAAAGAAAUAGUCUUGCGCUCAACCAGAAAGUCUGUAAUCAUUUUAAGGGUA [U38C A47U], with 0.77.

Take GUUAACGGUCAUAGGCCAUGGAAACUAGGAGCACCAUCUCGCUGCCAGUGAAGAAAUGAACAUAGAAAAUCUGGGCCAGGCAGGCAUCAAAAGAAAUAGUCUUGCGCUCAACCAGAAAGUCUGUAAUCAUUUUAAGGGUA [U38C A63U]: the self-cleavage stood at 0.76.

Turning to GUUAACGGUCAUAGGCCAUGGAAACUAGGAGCACCAUCUCGCUGCCAGUGAAGAAAUGAACAAAGAAAAUCUGGGCCAGGCAGGCGUCAAAAGAAAUAGUCUUGCGCUCAACCAGAAAGUCUGUAAUCAUUUUAAGGGUA [U38C A86G], the self-cleavage is 1.65. Then GUUAACGGUCAUAGGCCAUGGAAACUAGGAGCACCAUCUCGCUGCCAGUGAAGAAAUGAACAAAGAAAAUCUGGGCCAGGCAGGCCUCAAAAGAAAUAGUCUUGCGCUCAACCAGAAAGUCUGUAAUCAUUUUAAGGGUA [U38C A86C], with 1.31.

With GUUAACGGUCAUAGGCCAUGGAAACUAGGAGCACCAUAUCGCUGCCAGUGAAGAAAUGAACAAAGAAAAUCUGGGCCAGGCAGGCACCAAAAGAAAUAGUCUUGCGCUCAACCAGAAAGUCUGUAAUCAUUUUAAGGGUA [U38A U87C], the self-cleavage was found to be 1.56. Turning to GUUAACGGUCAUAGGCCAUGGAAACUAGGAGCACCAUAUCGCUGCCAGUGAAGAAAUGAACAAAGAAAAUCUGGGCCAGGCAGGCAUCAAAAGAAAUAGCCUUGCGCUCAACCAGAAAGUCUGUAAUCAUUUUAAGGGUA [U38A U100C], the self-cleavage stood at 2.23.

With GUUAACGGUCAUAGGCCAUGGAAACUAGGAGCACCAUCUCGCUGCCAGUGAAGAAAUGAACAAAGAAAAUCUGGGCCAGGCAGGCAUCUAAAGAAAUAGUCUUGCGCUCAACCAGAAAGUCUGUAAUCAUUUUAAGGGUA [U38C A89U], the self-cleavage was determined as 2.15.

GUUAACGGUCAUAGGCCAUGGAAACUAGGAGCACCAUCUCGCUGCCAGUGAAGAAAUGAACAAAGAAAAUCUGGGCCAGGCAGGCAUCCAAAGAAAUAGUCUUGCGCUCAACCAGAAAGUCUGUAAUCAUUUUAAGGGUA [U38C A89C]: the self-cleavage is 1.6.

As to GUUAACGGUCAUAGGCCAUGGAAACUAGGAGCACCAUCUCGCUGCCAGUGAAGAAAUGAACAAAGAAAAUCUGGGCCAGGCAGGCAUCGAAAGAAAUAGUCUUGCGCUCAACCAGAAAGUCUGUAAUCAUUUUAAGGGUA [U38C A89G], the self-cleavage was 1.9. In the case of GUUAACGGUCAUAGGCCAUGGAAACUAGGAGCACCAUCUCGCUGCCAGUGAAGAAAUGAACAAAGAAAAUCUGGGCCAGGCAGGCAUCAAAGGAAAUAGUCUUGCGCUCAACCAGAAAGUCUGUAAUCAUUUUAAGGGUA [U38C A92G] it was 1.97; in that of GUUAACGGUCAUAGGCCAUGGAAACUAGGAGCACCAUCUCGCUGCCAGUGAAGAAAUGAACAAAGAAAAUCUGGGCCAGGCAGGCAUCAAAUGAAAUAGUCUUGCGCUCAACCAGAAAGUCUGUAAUCAUUUUAAGGGUA [U38C A92U], 1.63.

GUUAACGGUCAUAGGCCAUGGAAACUAGGAGCACCAUCUCGCUGCCAGUGAAGAAAUGAACAAAGAAAAUCUGGGCCAGGCAGGCAUCAAAAGAAAUGGUCUUGCGCUCAACCAGAAAGUCUGUAAUCAUUUUAAGGGUA [U38C A98G]: the self-cleavage was found to be 0.96.

For the variant GUUAACGGUCAUAGGCCAUGGAAACUAGGAGCACCAUCUCGCUGCCAGUGAAGAAAUGAACAAAGAAAAUCUGGGCCAGGCAGGCAUCAAAAGGAAUAGUCUUGCGCUCAACCAGAAAGUCUGUAAUCAUUUUAAGGGUA [U38C A94G], the self-cleavage worked out at 0.74. On to GUUAACGGUCAUAGGCCAUGGAAACUAGGAGCACCAUCUCGCUGCCAGUGAAGAAAUGAACAAAGAAAAUCUGGGCCAGGCAGGCAUCAAAAGUAAUAGUCUUGCGCUCAACCAGAAAGUCUGUAAUCAUUUUAAGGGUA [U38C A94U], for which the self-cleavage was 2.15.

For GUUAACGGUCAUAGGCCAUGGAAACUAGGAGCACCAUCUCGCUGCCAGUGAAGAAAUGAACAAAGAUAAUCUGGGCCAGGCAGGCAUCAAAAGAAAUAGUCUUGCGCUCAACCAGAAAGUCUGUAAUCAUUUUAAGGGUA [U38C A67U], the self-cleavage was found to be 2.33.

Take GUUAACGGUCAUAGGCCAUGGAAACUAGGAGCACCAUCUCGCUGCCAGUGAAGAAAUGAACAAAGAGAAUCUGGGCCAGGCAGGCAUCAAAAGAAAUAGUCUUGCGCUCAACCAGAAAGUCUGUAAUCAUUUUAAGGGUA [U38C A67G]: the self-cleavage stood at 1.55. Then GUUAACGGUCAUAGGCCAUGGAAACUAGGAGCACCAUCUCGCUGCCAGUGAAGAAAUGAACAAAGAAAAUCUGGGCCAGGCAGGCAUCAAAAGAGAUAGUCUUGCGCUCAACCAGAAAGUCUGUAAUCAUUUUAAGGGUA [U38C A95G], with 1.58.

For GUUAACGGUCAUAGGCCAUGGAAACUAGGAGCACCAUCUCGCUGCCAGUGAAGAAAUGGACAAAGAAAAUCUGGGCCAGGCAGGCAUCAAAAGAAAUAGUCUUGCGCUCAACCAGAAAGUCUGUAAUCAUUUUAAGGGUA [U38C A59G], the self-cleavage worked out at 0.61. GUUAACGGUCAUAGGCCAUGGAAACUAGGAGCACCAUCUCGCUGCCAGUGAAGAAAUGACCAAAGAAAAUCUGGGCCAGGCAGGCAUCAAAAGAAAUAGUCUUGCGCUCAACCAGAAAGUCUGUAAUCAUUUUAAGGGUA [U38C A60C]: the self-cleavage stood at 2.1. For the variant GUUAACGGUCAUAGGCCAUGGAAACUAGGAGCACCAUCUCGCUGCCAGUGAAGAAAUGAACAAGGAAAAUCUGGGCCAGGCAGGCAUCAAAAGAAAUAGUCUUGCGCUCAACCAGAAAGUCUGUAAUCAUUUUAAGGGUA [U38C A64G], the self-cleavage was 1.45.

Take GUUAACGGUCAUAGGCCAUGGAAACUAGGAGCACCAUAUCGCUGCCAGUGAAGAAAUGAACAAAGAAAAUCUGGGCCAGGCAGGCAUCAAAAGAAAUAGUCUUGCGCUCAACCAGAAAGUCUGUAAUCACUUUAAGGGUA [U38A U130C]: the self-cleavage is 1.47. Then GUUAACGGUCAUAGGCCAUGGAAACUAGGAGCACCAUCUCGCUGCCAGUGAGGAAAUGAACAAAGAAAAUCUGGGCCAGGCAGGCAUCAAAAGAAAUAGUCUUGCGCUCAACCAGAAAGUCUGUAAUCAUUUUAAGGGUA [U38C A52G], with 1.53; and GUUAACGGUCAUAGGCCAUGGAAACUAGGAGCACCAUCUCGCUGCCAGUGACGAAAUGAACAAAGAAAAUCUGGGCCAGGCAGGCAUCAAAAGAAAUAGUCUUGCGCUCAACCAGAAAGUCUGUAAUCAUUUUAAGGGUA [U38C A52C], with 0.68.

For GUUAACGGUCAUAGGCCAUGGAAACUAGGAGCACCAUAUCGCUGCCAGUGAAGAAAUGAACAAAGAAAAUCUGGGCCAGGCAGGCAUCAAAAGAAAUAGUCUUGCGCCCAACCAGAAAGUCUGUAAUCAUUUUAAGGGUA [U38A U108C], the self-cleavage was found to be 0.01. In the case of GUUAACGGUCAUAGGCCAUGGAAACUAGGAGCACCAUAUCGCUGCCAGUGAAGAAAUGAACAAAGAAAAUCUGGGCCAGGCAGGCAUCAAAAGAAAUAGUCUUGCGCUCAACCAGAAAGCCUGUAAUCAUUUUAAGGGUA [U38A U120C], the self-cleavage is 1.12. In the case of GUUAACGGUCAUAGGCCAUGGAAACUAGGAGCACCAUCUCGCUGCCAGUGAAGAAAUGAACAAAGAAAAUCUGGGCCAGGCAGGCAUCACAAGAAAUAGUCUUGCGCUCAACCAGAAAGUCUGUAAUCAUUUUAAGGGUA [U38C A90C] it was 1.62.

In the case of GUUAACGGUCAUAGGCCAUGGAAACUAGGAGCACCAUCUCGCUGCCAGUGAAGAAAUGAACAAAGAAAAUCUGGGCCAGGCAGGCAUCAGAAGAAAUAGUCUUGCGCUCAACCAGAAAGUCUGUAAUCAUUUUAAGGGUA [U38C A90G], the self-cleavage came out at 1.4. Then GUUAACGGUCAUAGGCCAUGGAAACUAGGAGCACCAUCUCGCUGCCAGUGAAGUAAUGAACAAAGAAAAUCUGGGCCAGGCAGGCAUCAAAAGAAAUAGUCUUGCGCUCAACCAGAAAGUCUGUAAUCAUUUUAAGGGUA [U38C A54U], with 2.56; and GUUAACGGUCAUAGGCCAUGGAAACUAGGAGCACCAUCUCGCUGCCAGUGAAGGAAUGAACAAAGAAAAUCUGGGCCAGGCAGGCAUCAAAAGAAAUAGUCUUGCGCUCAACCAGAAAGUCUGUAAUCAUUUUAAGGGUA [U38C A54G], with 1.17; and GUUAACGGUCAUAGGCCAUGGAAACUAGGAGCACCAUCUCGCUGCCAGUGAAGAAAUGAACAAAGAAAAUCUGGGCCAGGCAGGCAUCAAAAGAAUUAGUCUUGCGCUCAACCAGAAAGUCUGUAAUCAUUUUAAGGGUA [U38C A96U], with 1.66.
